Where a chain is given by its changes, count along the chain named. Numbers in names are those of the source.
B1: G210E: mutation to UGT enzyme of SEQ ID NO: 13 (protein)
chain: MATKGSSGMSLAERFWLTLSRSSLVVGRSCVEFEPETVPLLSTLRGKPITFLGLMPPLHEGRREDGEDATVRWLDAQPAKSVVYVALGSEVPLGVEKVHELALGLELAGTRFLWALRKPTGVSDADLLPAGFEERTRGRGVVATRWVPQMSILAHAAVGAFLTHCGWNSTIEGLMFGHPLIMLPIFGDQGPNARLIEAKNAGLQVARNDEDGSFDREGVAAAIRAVAVEEESSKVFQAKAKKLQEIVADMACHERYIDGFIQQLRSYKDDSGYSSSYAAAAGMHVVICPWLAFGHLLPCLDLAQRLASRGHRVSFVSTPRNISRLPPVRPALAPLVAFVALPLPRVEGLPDGAESTNDVPHDRPDMVELHRRAFDGLAAPFSEFLGTACADWVIVDVFHHWAAAAALEHKVPCAMMLLGSAEMIASIADERLEHAETESPAAAGQGRPAAAPTFEVARMKLIR
B2: A248G: mutation to UGT enzyme of SEQ ID NO: 13 (protein)
chain: B1 chain with E210G, A248G
B3: C288F: mutation to UGT enzyme of SEQ ID NO: 13 (protein)
chain: B1 chain with E210G, C288F
B4: V91A: mutation to UGT enzyme of SEQ ID NO: 13 (protein)
chain: B1 chain with V91A, E210G
B5: F186I: mutation to UGT enzyme of SEQ ID NO: 13 (protein)
chain: B1 chain with F186I, E210G
B6: F186M: mutation to UGT enzyme of SEQ ID NO: 13 (protein)
chain: B1 chain with F186M, E210G
B7: F186T: mutation to UGT enzyme of SEQ ID NO: 13 (protein)
chain: B1 chain with F186T, E210G
B8: SEQ ID NO: 60: UGT_1,6 (Coffea Arabica) (protein, listed as Coffea arabica)
chain: MENHATFNVLMLPWLAHGHVSPYLELAKKLTARNFNVYLCSSPATLSSVRSKLTEKFSQSIHLVELHLPKLPELPAEYHTTNGLPPHLMPTLKDAFDMAKPNFCNVLKSLKPDLLIYDLLQPWAPEAASAFNIPAVVFISSSATMTSFGLHFFKNPGTKYPYGNAIFYRDYESVFVENLTRRDRDTYRVINCMERSSKIILIKGFNEIEGKYFDYFSCLTGKKVVPVGPLVQDPVLDDEDCRIMQWLNKKEKGSTVFVSFGSEYFLSKKDMEEIAHGLEVSNVDFIWVVRFPKGENIVIEETLPKGFFERVGERGLVVNGWAPQAKILTHPNVGGFVSHCGWNSVMESMKFGLPIIAMPMHLDQPINARLIEEVGAGVEVLRDSKGKLHRERMAETINKVMKEASGESVRKKARELQEKLELKGDEEIDDVVKELVQLCATKNKRNGLHYY
B9: SEQ ID NO: 77: SgUGT94-289-3.2 (Siraitia grosvenorii) (protein)
chain: MADAAQQGDTTTILMLPWLGYGHLSAFLELAKSLSRRNFHIYFCSTSVNLDAIKPKLPSSFSDSIQFVELHLPSSPEFPPHLHTTNGLPPTLMPALHQAFSMAAQHFESILQTLAPHLLIYDSLQPWAPRVASSLKIPAINFNTTGVFVISQGLHPIHYPHSKFPFSEFVLHNHWKAMYSTADGASTERTRKRGEAFLYCLHASCSVILINSFRELEGKYMDYLSVLLNKKVVPVGPLVYEPNQDGEDEGYSSIKNWLDKKEPSSTVFVSFGSEYFPSKEEMEEIAHGLEASEVNFIWVVRFPQGDNTSGIEDALPKGFLERAGERGMVVKGWAPQAKILKHWSTGGFVSHCGWNSVMESMMFGVPIIGVPMHVDQPFNAGLVEEAGVGVEAKRDPDGKIQRDEVAKLIKEVVVEKTREDVRKKAREMSEILRSKGEEKFDEMVAEISLLLKI
B10: SEQ ID NO: 29: OsUGT1-2 (Oryza sativa) (protein, listed as Oryza sativa)
chain: MDSGYSSSYAAAAGMHVVICPWLAFGHLLPCLDLAQRLASRGHRVSFVSTPRNISRLPPVRPALAPLVAFVALPLPRVEGLPDGAESTNDVPHDRPDMVELHRRAFDGLAAPFSEFLGTACADWVIVDVFHHWAAAAALEHKVPCAMMLLGSAHMIASIADRRLERAETESPAAAGQGRPAAAPTFEVARMKLIRTKGSSGMSLAERFSLTLSRSSLVVGRSCVEFEPETVPLLSTLRGKPITFLGLMPPLHEGRREDGEDATVRWLDAQPAKSVVYVALGSEVPLGVEKVHELALGLELAGTRFLWALRKPTGVSDADLLPAGFEERTRGRGVVATRWVPQMSILAHAAVGAFLTHCGWNSTIEGLMFGHPLIMLPIFGDQGPNARLIEAKNAGLQVARNDGDGSFDREGVAAAIRAVAVEEESSKVFQAKAKKLQEIVADMACHERYIDGFIQQLRSYKD
B11: SEQ ID NO: 79: PgUGT94_B1 (Panax ginseng) (protein)
chain: MADNQNGRISIALLPFLAHGHISPFFELAKQLAKRNCNVFLCSTPINLSSIKDKDSSASIKLVELHLPSSPDLPPHYHTTNGLPSHLMLPLRNAFETAGPTFSEILKTLNPDLLIYDFNPSWAPEIASSHNIPAVYFLTTAAASSSIGLHAFKNPGEKYPFPDFYDNSNITPEPPSADNMKLLHDFIACFERSCDIILIKSFRELEGKYIDLLSTLSDKTLVPVGPLVQDPMGHNEDPKTEQIINWLDKRAESTVVFVCFGSEYFLSNEELEEVAIGLEISTVNFIWAVRLIEGEKKGILPEGFVQRVGDRGLVVEGWAPQARILGHSSTGGFVSHCGWSSIAESMKFGVPVIAMARHLDQPLNGKLAAEVGVGMEVVRDENGKYKREGIAEVIRKVVVEKSGEVIRRKARELSEKMKEKGEQEIDRALEELVQICKKKKDEQ
modifications: Panax ginseng
B12: SEQ ID NO: 39: SgUGT94-289-1 (Siraitia grosvenorii) (protein)
chain: MDAQRGHTTTILMFPWLGYGHLSAFLELAKSLSRRNFHIYFCSTSVNLDAIKPKLPSSSSSDSIQLVELCLPSSPDQLPPHLHTTNALPPHLMPTLHQAFSMAAQHFAAILHTLAPHLLIYDSFQPWAPQLASSLNIPAINFNTTGASVLTRMLHATHYPSSKFPISEFVLHDYWKAMYSAAGGAVTKKDHKIGETLANCLHASCSVILINSFRELEEKYMDYLSVLLNKKVVPVGPLVYEPNQDGEDEGYSSIKNWLDKKEPSSTVFVSFGSEYFPSKEEMEEIAHGLEASEVHFIWVVRFPQGDNTSAIEDALPKGFLERVGERGMVVKGWAPQAKILKHWSTGGFVSHCGWNSVMESMMFGVPIIGVPMHLDQPFNAGLAEEAGVGVEAKRDPDGKIQRDEVAKLIKEVVVEKTREDVRKKAREMSEILRSKGEEKMDEMVAAISLFLKI
B13: SEQ ID NO: 78: OsJUGT_1,6 (Oryza sativa) (protein, listed as Oryza sativa)
chain: MAQAERERLRVLMFPWLAHGHINPYLELATRLTTTSSSQIDVVVHLVSTPVNLAAVAHRRTDRISLVELHLPELPGLPPALHTTKHLPPRLMPALKRACDLAAPAFGALLDELSPDVVLYDFIQPWAPLEAAARGVPAVHFSTCSAAATAFFLHFLDGGGGGGGRGAFPFEAISLGGAEEDARYTMLTCRDDGTALLPKGERLPLSFARSSEFVAVKTCVEIESKYMDYLSKLVGKEIIPCGPLLVDSGDVSAGSEADGVMRWLDGQEPGSVVLVSFGSEYFMTEKQLAEMARGLELSGAAFVWVVRFPQQSPDGDEDDHGAAAARAMPPGFAPARGLVVEGWAPQRRVLSHRSCGAFLTHCGWSSVMESMSAGVPMVALPLHIDQPVGANLAAELGVAARVRQERFGEFEAEEVARAVRAVMRGGEALRRRATELREVVARRDAECDEQIGALLHRMARLCGKGTGRAAQLGH
B14: SEQ ID NO: 74: CcUGT_1,6 (Coffea canephora) (protein, listed as Coffea canephora)
chain: MAENHATFNVLMLPWLAHGHVSPYLELAMKLTARNFNVYLCSSPATLSSVRSKLTEKFSQSIHLVELHLPKLPELPAEYHTTNGLPPHLMPTLKDAFDMAKPNFCNVLKSLKPDLLIYDLLQPWAPEAASAFNIPAVVFISSSATMTSFGLHFFKNPGTKYPYGNTIFYRDYESVFVENLKKRDRDTYRVVNCMERSSKIILIKGFKEIEGKYFDYFSCLTGKKVVPVGPLVQDPVLDDEDCRIMQWLNKKEKGSTVFVSFGSEYFLSKEDMEEIAHGLELSNVDFIWVVRFPKGENIVIEETLPKGFFERVGERGLVVNGWAPQAKILTHPNVGGFVSHCGWNSVMESMKFGLPIVAMPMHLDQPINARLIEEVGAGVEVLRDSKGKLHRERMAETINKVTKEASGEPARKKARELQEKLELKGDEEIDDVVKELVQLCATKNKRNGLHCYN

How the values were obtained:
[1] = tested on: steviol glycoside; assay: steviol glycoside bioconversion by E. coli expressing individual mutations of UGT SEQ ID NO: 13; assay type: cell-based; conditions: fold improvement of % conversion vs parent UGT SEQ ID NO: 13; stevia leaf extract and glucose fed; 37° C., 48 hr
Source text: A UGT enzyme referred to as MbUGT1,2 is described in U.S. Pat. No. 10,743,567, which is hereby incorporated by reference. An engineered version of MbUGT1,2 (SEQ ID NO: 13) is described in US 2020/0087692, which is hereby incorporated by reference in its entirety. The UGT enzyme of SEQ ID NO: 13 was further engineered to improve activity for steviol glycoside bioconversion. […] Fold improvement is with respect to % steviol glycoside conversion of the parent UGT enzyme (SEQ ID NO: 13). SEQ ID NO: 14 has the following mutations from SEQ ID NO: 13: G5N, F186T, V397S. Stevia leaf extract and glucose were fed to the bioconversion strains. Bioconversion took place at 37° C. for 48 hr. Data were quantified by reverse phase LC DAD to quantify conversion of steviol glycosides.
Fold improvement (FI) is with respect to % steviol glycoside conversion.

[2] = tested on: Mog. IIE or Mog. IE; assay: branched glycosylation reactions by cells expressing UGT enzymes; assay type: cell-based, E. coli; conditions: Mog. IIE or Mog. IE fed; 37° C., 48 hr; LC-MS/MS
Description: Mog. IIE or Mog. IE was fed to cells expressing various UGT enzymes. Reactions were incubated at 37° C. for 48 hr. Products were quantified by LC-MS/MS with authentic standards of each compound. “Indirect” evidence means that consumption of substrate was observed.

| Molecule | FI %Stevioside→rebE [1] | FI %rebA→rebD [1] | C3 1-2 [2] | C3 1-6 [2] | C24 1-2 [2] | C24 1-6 [2] |
| --- | --- | --- | --- | --- | --- | --- |
| B1 | 1.2 | 1.2 | – | – | – | – |
| B2 | 1.1 | 1.1 | – | – | – | – |
| B3 | 1.7 | 1.5 | – | – | – | – |
| B4 | 1.1 | 1.1 | – | – | – | – |
| B5 | 2.6 | 2.1 | – | – | – | – |
| B6 | 2.9 | 2.3 | – | – | – | – |
| B7 | 1.8 | 1.7 | – | – | – | – |
| B8 | – | – | No | Yes | Yes | Yes |
| B9 | – | – | No | Yes | No | Yes |
| B10 | – | – | No | No | No | Yes |
| B11 | – | – | No | No | No | Yes |
| B12 | – | – | No | Yes | Yes | Yes |
| B13 | – | – | No | No | Yes | No |
| B14 | – | – | No | Yes | No | Yes |
